Assay results as given in patent US20240041922A1, “METHODS AND COMPOSITIONS” (Monash University, priority 2020, published 2024).
Entries after “also recorded” stand apart in the source; their conditions may differ. One block for each molecule: values may come before it.

Key:
[1] = system: wound-resident muscle stem cells; test: Larval zebrafish needle stab muscle injury, wound site proliferation (EdU); format: in vivo; settings: needle stab injury; for wound site muscle stem cell proliferation: agent alone
Method: 4dpf larvae were anaesthetized in 0.01% tricaine (MS-222) (Sigma-Aldrich) in Ringer's solution. Mechanical injures were targeted either to the dorsal or ventral myotome above the cloaca when the larvae is oriented dorsal to the top, anterior to the left. Needle-stick injury was carried out as previously described (Gurevich, D. B. el al. Asymmetric division of clonal muscle stem cells co-ordinate muscle regeneration in vivo. Science 353 6295 aad9969 (2016)). Briefly, the myotome was subjected to a single 30-gauge needle puncture that generates an extensive injury with many damaged muscle fibres. For laser-induced injury, anaesthetised larvae were mounted in a thin layer of 1% low-melt agarose in Ringer's solution. Injuries were carried out using a UV-nitrogen laser pulsed through a coumarin 440 nm dye cell coupled to a Zeiss Axioplan microscope (MicroPoint Laser System, Andor Technology). On average a laser injury required pulses for 5-10 sec from laser beams focused through a 40× water immersion objective. For time-lapse analysis of the immediate response to injury, muscle fibre ablations were achieved using a SIM scanner (Olympus) at 790 nm and 200 msec dwell time at 100% laser power on an Olympus FVMPE-RS upright multi-photon microscope equipped with a 25×/1.05 water immersion objective. Injury-responding macrophages were tracked using the manual tracking plugin in Fiji.
Cell ablation was carried out as previously described (Pisharath, H. & Parsons, M. J. in Zebrafish 133-143 (Springer, 2009)) with minor modifications. Larvae at the appropriate stage were incubated in 5-10 mM metronidazole (Mtz) (Sigma-Aldrich) in Ringer's solution and daily refreshed until experimental end point. Drug treatments were carried out by incubating 4 dpf needle stick injured larvae in 5 and 10 μM cenicriviroc (CVC) (Med Chem Express) and 5 and 10 μM maraviroc (MVC) (Med Chem Express) in Ringer's solution immediately post injury and refreshed daily.
The effect of drug treatment on laser ablation muscle injury was assayed by treating larvae with 5 μM CVC for 2 h prior to injury and with larvae being maintained in the drug until experimental end point. […] Chemokine supplementation experiments were carried out in plasticware coated with 0.1% bovine serum albumin (BSA) overnight (rinsed in Ringer's solution prior to use) to minimise protein adsorption. Larvae were treated with 57 nM recombinant human visfatin (hrNAMPT(1)) (PeproTech), 57 nM recombinant murine CCL8/MCP-2 (mrCCL8) (PeproTech) and combinations with Mtz and CVC.
Larvae: Labelling and detection was carried out as previously described (Nguyen, P. D. et al. Muscle stem cells undergo extensive clonal drift during tissue growth via Meox1-mediated induction of G2 cell-cycle arrest. Cell Stem Cell 21, 107-119. e106 (2017))^55 with minor alteration. 6 dpf/2 dpi larvae were pulsed with 2.5 nM EdU (Thermo Fisher) for 1h and chased for a further 1.5 h prior to fixation. Cell culture: Cells were incubated for 1 h in media supplemented with 10 μM EdU. Following Edu pulse, C2C12 cells were fixed immediately, while primary mouse myoblast co-cultures were rinsed in PBS, replaced with media and incubated for a further 2 h following which the cells were fixed. Cells were processed using the Click-iT™ EdU Alexa Fluro™ 647 imaging Kit (Thermo Fisher) following the manufacturer's protocol.

C2C12 myoblasts = test: C2C12 myoblast proliferation (EdU incorporation); format: cell-based, mouse; settings: 6 h in growth media
Method: Larvae: Labelling and detection was carried out as previously described (Nguyen, P. D. et al. Muscle stem cells undergo extensive clonal drift during tissue growth via Meox1-mediated induction of G2 cell-cycle arrest. […] Cell culture: Cells were incubated for 1 h in media supplemented with 10 μM EdU. […] Cells were processed using the Click-iTTM EdU Alexa FluroTM 647 imaging Kit (Thermo Fisher) following the manufacturer's protocol. The mouse muscle cell line […]. Serial passaging and differentiation of myogenic cells isolated from dystrophic mouse muscle. Nature 270, 725 (1977) were cultured in growth media (Dulbecco's Modified Eagle Medium (4.5 g/l D-Glucose, No L Glutamine, No Sodium Pyruvate (Gibco))+20% Fetal Bovine Solution-One Shot (Gibco)+1% Glut Max 100x (Gibco)). Cells were maintained at 37° C., 5% CO2. Cells at 70% confluence, passage 8 were extracted from T75 flasks with 0.025% Tryspin EDTA (Gibco), neutralised in growth media, spun at 180×g for 5 min to pellet cells. The cells were then resuspended in 10 ml of fresh growth media. 500 μl of cells were plated on a 8-well on cover glass II (Sarstedt) chamber slide at a density of 1×10^3 cells/ml. Cells were left 4 h at 37° C. to re-attach. For drug treatments, the media were supplemented with appropriate doses and cultured for 6 h.

PAX7+ satellite cells = test: Primary mouse myoblast mono- and co-cultures, PAX7+ satellite cell proliferation (EdU); format: cell-based; settings: myoblast monoculture (MB) and MB+3T3 co-culture, 24 h
Method: Larvae: Labelling and detection was carried out as previously described (Nguyen, P. D. et al. Muscle stem cells undergo extensive clonal drift during tissue growth via Meox1-mediated induction of G2 cell-cycle arrest. […] Cell culture: Cells were incubated for 1 h in media supplemented with 10 μM EdU. […] Cells were processed using the Click-iTTM EdU Alexa FluroTM 647 imaging Kit (Thermo Fisher) following the manufacturer's protocol. For isolation of primary mouse myoblasts, limb skeletal muscle from E17.5 C57/BL6J mice were minced and digested in 0.125% Trypsin at 37° C. for 20 min. […] Myoblasts were again depleted for fibroblasts prior to co-culturing on gelatin-coated 48 well plates in DMEM+20% FBS+10% L929-conditioned medium. 100,000 myoblasts were plated with either 7,500 MafB/c-Maf deficient (Maf-DKO) macrophages (Aziz, A., Soucie, E., Sarrazin, […]. MafB/c-Maf deficiency enables self-renewal of differentiated functional macrophages. […] For drug treatments, the media were supplemented with appropriate doses and cultured for 24 h.

[2] = molecular target: T1, human recombinant CCR5 (hrCCR5) (Homo sapiens, UniProt P51681); test: hrNAMPT binding to hrCCR5 (ELISA); settings: hrNAMPT(1) 0-800 nM on hrCCR5-coated ELISA plates, BSA binding deducted; read-out: dissociation constant (KD)
T1 construct: purchased Abcam
Method: hrNAMPT binding to hrCCR5: ELISA plates (Medium binding, Greiner Bio-One) were coated with 1% BSA or 20 nM of GST-fused recombinant human CCR5 (hrCCR5, Abcam) in PBS overnight at 4° C. Wells were blocked for 1 h at room temperature with 1% BSA in PBS containing 0.05% Tween-20 (PBS-T). Wells were washed 3 times with PBS-T and further incubated with hrNAMPT(1) (Peprotech) at increasing concentration (0 nM to 800 nM) for 1 h in PBS-T with 0.1% BSA.

CCR5 = test: NAMPTcif competition with NAMPT binding to CCR5
Excerpt: (§1) As described above NAMPT, is a large homodimeric intracellular enzyme which acts as cytokine when released in the extracellular milieu. […] Moreover, the domain extends out from the core protein structure potentially facilitating receptor binding.

satellite cells = test: Satellite cell stimulation with NAMPTcif (proliferation); format: cell-based; settings: compared to no stimulation control
Excerpt: as §1

T1 sequence (P51681 whole entry): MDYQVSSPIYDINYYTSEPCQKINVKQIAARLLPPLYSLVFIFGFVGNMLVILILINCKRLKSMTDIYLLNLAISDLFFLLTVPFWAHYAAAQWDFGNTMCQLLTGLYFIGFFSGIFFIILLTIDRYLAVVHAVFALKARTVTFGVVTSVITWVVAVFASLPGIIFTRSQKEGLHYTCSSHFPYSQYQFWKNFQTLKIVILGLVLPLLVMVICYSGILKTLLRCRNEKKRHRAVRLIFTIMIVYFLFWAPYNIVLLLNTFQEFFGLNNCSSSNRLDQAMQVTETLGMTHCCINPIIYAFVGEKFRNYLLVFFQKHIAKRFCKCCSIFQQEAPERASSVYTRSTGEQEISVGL

B1: mrCCL4: recombinant murine CCL4/MIP-1β (PeproTech), cognate CCR5 ligand (protein)
chain: APMGSDPPTSCCFSYTSRQLHRSFVMDYYETSSLCSKPAVVFLTKRGRQICANPSEPWVTEYMSDLELN
proliferation external to the injury zone [1]: failed to demonstrate discrimination between injury region and sites external to the damage
wound site muscle stem cell proliferation [1]: functioned to enhance proliferation
myoblast proliferation, factor added alone (C2C12 myoblasts): functioned to enhance C2C12 proliferation
myoblast proliferation, factor added alone (C2C12 myoblasts; listed as CCL4/MIP-1β): could be recapitulated
satellite cell proliferation on supplementation (PAX7+ satellite cells): enhanced proliferation; also recorded: mirrored the results of NAMPT addition

B2: mrCCL8: recombinant murine CCL8/MCP-2 (PeproTech), canonical CCR5 ligand (protein)
chain: GPDKAPVTCCFHVLKLKIPLRVLKSYERINNIQCPMEAVVFQTKQGMSLCVDPTQKWVSEYMEILDQKSQILQP
increase in cell proliferation external to the site of injury vs control [1]: 43.03±4.46%
proliferation external to the injury zone [1]: also increased proliferation external to the injury zone
wound site muscle stem cell proliferation [1]: functioned to increase proliferation in the wound site
increase in muscle stem cell proliferation within the wound site vs control ([1]; supplementation): 28.34±4.48%
myoblast proliferation, factor added alone (C2C12 myoblasts): functioned to enhance C2C12 proliferation
myoblast proliferation, factor added alone (C2C12 myoblasts; listed as CCL8/MCP-2): could be recapitulated

Kd [2]: 172 ± 18 nM
B3: hrNAMPT(1): recombinant human visfatin (PeproTech) (protein)
chain: PPNTSKVYSYFECREKKTENSKLRKVKYEETVFYGLQYILNKYLKGKVVTKEKIQEAKDVYKEHFQDDVFNEKGWNYILEKYDGHLPIEIKAVPEGFVIPRGNVLFTVENTDPECYWLTNWIETILVQSWYPITVATNSREQKKILAKYLLETSGNLDGLEYKLHDFGYRGVSSQETAGIGASAHLVNFKGTDTVAGLALIKKYYGTKDPVPGYSVPAAEHSTITAWGKDHEKDAFEHIVTQFSSVPVSVVSDSYDIYNACEKIWGEDLRHLIVSRSTQAPLIIRPDSGNPLDTVLKVLEILGKKFPVTENSKGYKLLPPYLRVIQGDGVDINTLQEIVEGMKQKMWSIENIAFGSGGGLLQKLTRDLLNCSFKCSYVVTNGLGINVFKDPVADPNKRSKKGRLSLHRTPAGNFVTLEEGKGDLEEYGQDLLHTVFKNGKVTKSYSFDEIRKNAQLNIELEAAHH
myoblast proliferation, factor added alone (C2C12 myoblasts): dose dependent increase in myoblast proliferation; also recorded: comparable and significant dose dependent increases in myoblast proliferation

inhibition of NAMPT binding to CCR5 (CCR5): inhibits the binding of NAMPT to CCR5
B4: NAMPTcif: recombinantly produced C-terminal fragment of NAMPT, termed cytokine finger (cif) (protein)
chain: MSYVVTNGLGVNVFKDPVADPNKRSKKGRLSLHRTPAGNFVTLEEGKGDLEEYGHDLLHTVFKNGKVTKSYSFDEVRKNAQLNIEQDVAPHHHHHHH
satellite cell proliferation (satellite cells): promotes proliferation in a dose-dependent manner
satellite cell proliferation (satellite cells; listed as cif): stimulates satellite cell proliferation in a dose-dependent manner

B5: hrNAMPT(2): recombinant human visfatin (Enzo Life Sciences) (protein)
chain: MNPAAEAEFNILLATDSYKVTHYKQYPPNTSKVYSYFECREKKTENSKLRKVKYEETVFYGLQYILNKYLKGKVVTKEKIQEAKDVYKEHFQDDVFNEKGWNYILEKYDGHLPIEIKAVPEGFVIPRGNVLFTVENTDPECYWLTNWIETILVQSWYPITVATNSREQKKILAKYLLETSGNLDGLEYKLHDFGYRGVSSQETAGIGASAHLVNFKGTDTVAGLALIKKYYGTKDPVPGYSVPAAEHSTITAWGKDHEKDAFEHIVTQFSSVPVSVVSDSYDIYNACEKIWGEDLRHLIVSRSTQAPLIIRPDSGNPLDTVLKVLEILGKKFPVTENSKGYKLLPPYLRVIQGDGVDINTLQEIVEGMKQKMWSIENIAFGSGGGLLQKLTRDLLNCSFKCSYVVTNGLGINVFKDPVADPNKRSKKGRLSLHRTPAGNFVTLEEGKGDLEEYGQDLLHTVFKNGKVTKSYSFDEIRKNAQLNIELEAAHH
myoblast proliferation, factor added alone (C2C12 myoblasts): dose dependent increase in myoblast proliferation; also recorded: comparable and significant dose dependent increases in myoblast proliferation
